Changes are numbered by the printed parent chain. Numbers in names are those of the source.
How the values were obtained:
ΔEstCA = molecular target: T1, ΔEstCA (Catenulispora acidiphila, UniProt C7Q579); test: […] min end-point 4-nitrophenol release, […] nm; assay type: biochemical; details: 1.5 mM substrate, gum arabic, universal buffer pH 5-11, 30 °C, or Tris-HCl pH 8.5, 5-50 °C
T1 construct: gene Caci_7018; C-terminal His6 (pEXP5-CT), E. coli BL21-AI
T1 sequence (C7Q579 1-255): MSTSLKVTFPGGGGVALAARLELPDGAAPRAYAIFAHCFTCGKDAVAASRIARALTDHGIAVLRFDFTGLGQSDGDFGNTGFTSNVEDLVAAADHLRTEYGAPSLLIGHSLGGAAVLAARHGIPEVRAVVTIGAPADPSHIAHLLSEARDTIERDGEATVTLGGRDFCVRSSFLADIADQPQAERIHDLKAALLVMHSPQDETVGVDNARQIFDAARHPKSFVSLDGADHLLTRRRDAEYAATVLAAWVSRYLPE

ΔEstRD = molecular target: T2, ΔEstRD (Roseobacter denitrificans, UniProt Q166H3); test: […] min end-point 4-nitrophenol release, […] nm; assay type: biochemical; details: 1.5 mM substrate
T2 construct: gene RD1_2563; C-terminal His6 (pEXP5-CT), E. coli BL21-AI

ΔEstLA = molecular target: T3, ΔEstLA (Roseibium aggregatum, UniProt A0NLQ8); test: […] min end-point 4-nitrophenol release, […] nm; assay type: biochemical; details: 1.5 mM substrate, gum arabic, universal buffer pH 5-11, 30 °C, or Tris-HCl pH 8.5, 5-50 °C
T3 construct: gene SIAM614_09253; N-terminal His6 (pDEST17), E. coli BL21-AI
T3 sequence (A0NLQ8 1-266): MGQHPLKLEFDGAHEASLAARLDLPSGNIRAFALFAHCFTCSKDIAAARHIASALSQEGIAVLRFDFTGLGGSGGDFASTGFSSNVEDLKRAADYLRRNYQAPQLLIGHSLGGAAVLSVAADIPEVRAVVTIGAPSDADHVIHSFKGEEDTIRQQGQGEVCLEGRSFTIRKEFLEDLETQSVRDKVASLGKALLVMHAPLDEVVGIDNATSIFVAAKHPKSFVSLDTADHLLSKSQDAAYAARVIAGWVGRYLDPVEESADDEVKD

ΔEstO = molecular target: T4, ΔEstO (Pseudoalteromonas arctica, UniProt D6CHH1); test: […] min end-point 4-nitrophenol release, […] nm; assay type: biochemical; details: 1.5 mM substrate
T4 construct: gene estO; N-terminal His6 (pDEST17), E. coli BL21-AI

ΔEstEM = molecular target: T5, ΔEstEM (Sinorhizobium meliloti, UniProt Q92Y44); test: […] min end-point 4-nitrophenol release, […] nm; assay type: biochemical; details: 1.5 mM substrate
T5 construct: gene SMa1898; N-terminal His6 (pDEST17), E. coli BL21-AI

ΔEstCAL = molecular target: T6, ΔEstCAL (Cellulophaga algicola, UniProt E6X8P4); test: […] min end-point 4-nitrophenol release, […] nm; assay type: biochemical; details: 1.5 mM substrate, gum arabic, universal buffer pH 5-11, 30 °C, or Tris-HCl pH 8.5, 5-50 °C
T6 construct: gene Celal_0286; C-terminal His6 (pEXP5-CT), E. coli BL21-AI

purified protein [1] = substrate: CCCCCCCC(=O)Oc1ccc([N+](=O)[O-])cc1; test: purified protein; assay type: biochemical, Rhodothermus marinus; details: 25 mM Tris-HCl pH 8.5, 5% acetonitrile, 0.5% Triton X-100
purified protein [2] = substrate: CCCC(=O)Oc1ccc([N+](=O)[O-])cc1; test: purified protein; assay type: biochemical, Rhodothermus marinus; details: 25 mM Tris-HCl pH 8.5, 5% acetonitrile, 0.5% Triton X-100
purified protein [3] = substrate: CC(=O)Oc1ccc([N+](=O)[O-])cc1; test: purified protein; assay type: biochemical, Rhodothermus marinus; details: 25 mM Tris-HCl pH 8.5, 5% acetonitrile, 0.5% Triton X-100
purified protein [4] = substrate: CCCCCCCCCC(=O)Oc1ccc([N+](=O)[O-])cc1; test: purified protein; assay type: biochemical, Rhodothermus marinus; details: 25 mM Tris-HCl pH 8.5, 5% acetonitrile, 0.5% Triton X-100
purified protein [5] = substrate: O=C(Oc1ccc([N+](=O)[O-])cc1)c1ccccc1; test: purified protein; assay type: biochemical, Rhodothermus marinus; details: 25 mM Tris-HCl pH 8.5, 5% acetonitrile, 0.5% Triton X-100
purified protein [6] = substrate: CCCCCCCCCCCC(=O)Oc1ccc([N+](=O)[O-])cc1; test: purified protein; assay type: biochemical, Rhodothermus marinus; details: 25 mM Tris-HCl pH 8.5, 5% acetonitrile, 0.5% Triton X-100
[7] = gum arabic, universal buffer pH 5-11, 30 °C, or Tris-HCl pH 8.5, 5-50 °C

T2 sequence (Q166H3 entry or part of it, stated change not applied): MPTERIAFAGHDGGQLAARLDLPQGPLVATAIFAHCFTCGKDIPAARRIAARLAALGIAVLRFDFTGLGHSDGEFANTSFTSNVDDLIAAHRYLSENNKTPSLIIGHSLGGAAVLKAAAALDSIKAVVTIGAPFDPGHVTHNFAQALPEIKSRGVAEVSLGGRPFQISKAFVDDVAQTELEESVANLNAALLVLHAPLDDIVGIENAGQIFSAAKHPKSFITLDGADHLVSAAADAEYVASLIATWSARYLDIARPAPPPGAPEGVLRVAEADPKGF
T4 sequence (D6CHH1 entry or part of it, stated change not applied): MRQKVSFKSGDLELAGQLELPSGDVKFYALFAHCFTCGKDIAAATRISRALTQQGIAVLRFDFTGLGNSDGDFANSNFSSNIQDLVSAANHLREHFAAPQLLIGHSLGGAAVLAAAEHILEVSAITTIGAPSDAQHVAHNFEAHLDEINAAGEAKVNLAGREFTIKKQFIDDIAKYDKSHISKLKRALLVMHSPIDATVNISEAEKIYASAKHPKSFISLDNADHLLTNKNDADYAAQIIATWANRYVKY
T5 sequence (Q92Y44 entry or part of it, stated change not applied): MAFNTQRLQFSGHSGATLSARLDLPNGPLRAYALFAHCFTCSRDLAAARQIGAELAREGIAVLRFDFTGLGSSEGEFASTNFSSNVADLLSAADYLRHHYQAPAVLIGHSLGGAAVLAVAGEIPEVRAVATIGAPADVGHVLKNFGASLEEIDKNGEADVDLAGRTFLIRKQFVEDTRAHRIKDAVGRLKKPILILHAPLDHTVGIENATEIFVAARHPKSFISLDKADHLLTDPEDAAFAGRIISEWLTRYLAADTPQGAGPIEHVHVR
T6 sequence (E6X8P4 entry or part of it, stated change not applied): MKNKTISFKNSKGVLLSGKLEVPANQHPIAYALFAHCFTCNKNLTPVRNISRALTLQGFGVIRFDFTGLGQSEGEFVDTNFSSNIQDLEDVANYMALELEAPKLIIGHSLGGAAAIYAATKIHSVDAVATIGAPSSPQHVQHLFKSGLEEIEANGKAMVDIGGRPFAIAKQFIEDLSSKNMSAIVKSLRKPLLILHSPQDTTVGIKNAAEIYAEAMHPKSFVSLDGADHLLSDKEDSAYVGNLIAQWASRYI

O=C(Oc1ccc([N+](=O)[O-])cc1)c1ccccc1 [4NP-benzoate]
30 min end-point 4-nitrophenol release, 410 nm (ΔEstCA): optimum temperature and pH profiles of each enzyme using p-nitrophenyl benzoate as a substrate
30 min end-point 4-nitrophenol release, 410 nm (ΔEstRD; [7]): optimum temperature and pH profiles of each enzyme using p-nitrophenyl benzoate as a substrate
30 min end-point 4-nitrophenol release, 410 nm (ΔEstLA): optimum temperature and pH profiles of each enzyme using p-nitrophenyl benzoate as a substrate
30 min end-point 4-nitrophenol release, 410 nm (ΔEstO; [7]): optimum temperature and pH profiles of each enzyme using p-nitrophenyl benzoate as a substrate
30 min end-point 4-nitrophenol release, 410 nm (ΔEstEM; [7]): optimum temperature and pH profiles of each enzyme using p-nitrophenyl benzoate as a substrate
30 min end-point 4-nitrophenol release, 410 nm (ΔEstCAL): optimum temperature and pH profiles of each enzyme using p-nitrophenyl benzoate as a substrate

CCCCCCCCCC(=O)Oc1ccc([N+](=O)[O-])cc1 [4NP-decanoate]
30 min end-point 4-nitrophenol release, 410 nm (ΔEstRD; Tris-HCl pH 8.5): ΔEstEM, ΔEstRD, and ΔEstO showed a preference for decanoate (C10)
30 min end-point 4-nitrophenol release, 410 nm (ΔEstO; Tris-HCl pH 8.5): ΔEstEM, ΔEstRD, and ΔEstO showed a preference for decanoate (C10)
30 min end-point 4-nitrophenol release, 410 nm (ΔEstEM; Tris-HCl pH 8.5): ΔEstEM, ΔEstRD, and ΔEstO showed a preference for decanoate (C10)

B1: ΔEstRM (Rhodothermus marinus DSM 4252; S72A) (protein)
chain: MQIKTVTFENNRGERLAARLDLPVDTQPVAYALFAHCFTCSKNLKAVTTISRALTTQGYAVLRFDFTGLGEAEGDFSETTFATNFEDLRAACRFLSAQYEPPALLIGHSLGGAAVLAVAGEFPEVKAVATIGAPCDPAHVRHLLRPALDTIKTVGEAVVDLGGRPFRIKKQFLEELERVNLEDQVRTMRRPLLLFHSPTDQIVGIENAACLFQAARHPKSFVSLDQADHLLSNSDDAAFVGEVLGAWARRYVGRR
notes: esterase domain, residues 1-255 of 410, OsmC domain removed; N-terminal His6 (pDEST17, E. coli BL21-AI; crystal text says C-terminal His6); monomer
Km (purified protein [1]): 660 ± 60 µM
Km (purified protein [2]): 1050 ± 210 µM

B2: ΔEstRM (Rhodothermus marinus DSM 4252) (protein)
chain: B1 chain with A72S
notes: as for B1
Km (purified protein [1]): 490 ± 48 µM
Km (purified protein [3]): 3540 ± 800 µM
Km (purified protein [4]): 825 ± 130 µM
Km (purified protein [5]): 244 ± 12 µM
Km (purified protein [2]): 1070 ± 170 µM
Km (purified protein [6]): 981 ± 150 µM

B3: EstRM (Rhodothermus marinus DSM 4252) (protein)
chain: MQIKTVTFENNRGERLAARLDLPVDTQPVAYALFAHCFTCSKNLKAVTTISRALTTQGYAVLRFDFTGLGESEGDFSETTFATNFEDLRAACRFLSAQYEPPALLIGHSLGGAAVLAVAGEFPEVKAVATIGAPCDPAHVRHLLRPALDTIKTVGEAVVDLGGRPFRIKKQFLEELERVNLEDQVRTMRRPLLLFHSPTDQIVGIENAACLFQAARHPKSFVSLDQADHLLSNSDDAAFVGEVLGAWARRYVGRRPVPDTYRLDPGEARAVVRTGRAHYRTDIAADGHALVADEPAPLGGTDAGPSPYGYLAAALGACTTITLRLYADRKGWPLEAATAYIYHEKVHLNDCTECAEQGIEQTPGGKIDRFTVELTLEGALDAAQRQRLLEIAGRCPVHRTLKSPVVTRTRLRD
notes: full length, 410 residues, His6 tag, E. coli BL21-AI; monomer
Km (purified protein [1]): 309 ± 70 µM
Km (purified protein [5]): 292 ± 31 µM
Km (purified protein [2]): 962 ± 140 µM
